Measurements: the supplement of paper PMC10567573

B1: SPSB1 (parent)
chain: DMRDPTYRPLKQELQGLDYCKPTR

Variants of: B1
Assay: protein stability index of a GFP-peptide fusion (GPS, HEK-293T) (PSI 1-6); higher = more stable
Conditions: c terminus: a fixed tail appended
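Note: lentivirally expressed fusions sorted by FACS into six bins by GFP to DsRed ratio, PSI derived from sequencing read proportions per bin multiplied by bin number.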

Row | Variant | protein stability index
1 | WMRDPTYRPLKQELQGLDYCKPTR [D1W] | 1.78
2 | MMRDPTYRPLKQELQGLDYCKPTR [D1M] | 3.39
3 | HMRDPTYRPLKQELQGLDYCKPTR [D1H] | 2.94
4 | KMRDPTYRPLKQELQGLDYCKPTR [D1K] | 3.06
5 | RMRDPTYRPLKQELQGLDYCKPTR [D1R] | 3.32
6 | YMRDPTYRPLKQELQGLDYCKPTR [D1Y] | 2.99
7 | LMRDPTYRPLKQELQGLDYCKPTR [D1L] | 2.36
8 | QMRDPTYRPLKQELQGLDYCKPTR [D1Q] | 2.83
9 | DMRDPTYRPLKQELQGLHYCKPTR [D18H] | 3.73
10 | DMRDPTYRPLKQELQGLSYCKPTR [D18S] | 3.48
11 | DMRDPTYRPLKQELQGLMYCKPTR [D18M] | 2.94
12 | DMRDPTYRPLKQELQGLGYCKPTR [D18G] | 3.81
13 | DMRDPTYRPLKQELQGLNYCKPTR [D18N] | 2.28
14 | DMRDPTYRPLKQELQGLPYCKPTR [D18P] | 3.63
15 | DMRDPTYRPLKQELQGLYYCKPTR [D18Y] | 2.99
16 | DMRDPTYRPLKQELQGLDYCKPTN [R24N] | 4.03
17 | DMRDPTYRPLKQELQGLDYCKPTQ [R24Q] | 3.18
18 | DMRDPTYRPLKQELQGLDYCKPTW [R24W] | 1.93
19 | DMRDPTYRPLKQELQGLDYCKPTP [R24P] | 4.29
20 | DMRDPTYRPLKQELQGLDYCKPTA [R24A] | 2.32
21 | DMRDPTYRPLKQELQGLDYCKPTM [R24M] | 1.64
22 | DMRDPTYRPLKQELQGLDYCKPTL [R24L] | 1.6
23 | DMRDPTYRPMKQELQGLDYCKPTR [L10M] | 3.25
24 | DMRDPTYRPYKQELQGLDYCKPTR [L10Y] | 2.81

Row | Variant | protein stability index
25 | DMRDPTYRPWKQELQGLDYCKPTR [L10W] | 3.24
26 | DMRDPTYRPCKQELQGLDYCKPTR [L10C] | 2.6
27 | DMRDPTYRPQKQELQGLDYCKPTR [L10Q] | 3.68
28 | DMRDPTYRPRKQELQGLDYCKPTR [L10R] | 2.93
29 | DMRDPTYRPNKQELQGLDYCKPTR [L10N] | 3.16
30 | DMRDPTYRPLKQELQGMDYCKPTR [L17M] | 4.12
31 | DMRDPTYRPLKQELQGQDYCKPTR [L17Q] | 4.51
32 | DMRDPTYRPLKQELQGIDYCKPTR [L17I] | 4.02
33 | DMRDPTYRPLKQELQGTDYCKPTR [L17T] | 4.29
34 | DMRDPTYRPLKQNLQGLDYCKPTR [E13N] | 3.03
35 | DMRDPTYRPLKQVLQGLDYCKPTR [E13V] | 3.1
36 | DMRDPTYRPLKQTLQGLDYCKPTR [E13T] | 3.18
37 | DMRDPTYRPLKQPLQGLDYCKPTR [E13P] | 3.68
38 | DMRDPTYRPLKQGLQGLDYCKPTR [E13G] | 3.59
39 | DMRDPTYRPLKQFLQGLDYCKPTR [E13F] | 2.58
40 | DMRDPTYRPLKQILQGLDYCKPTR [E13I] | 2.62
41 | DMRDPMYRPLKQELQGLDYCKPTR [T6M] | 2.92
42 | DMRDPEYRPLKQELQGLDYCKPTR [T6E] | 3.51
43 | DMRDPIYRPLKQELQGLDYCKPTR [T6I] | 3.63
44 | DMRDPNYRPLKQELQGLDYCKPTR [T6N] | 3.13
45 | DMRDPPYRPLKQELQGLDYCKPTR [T6P] | 3.57
46 | DMRDPYYRPLKQELQGLDYCKPTR [T6Y] | 2.98
47 | DMRDPTYRPLKQELQGLDYCLPTR [K21L] | 3.38
48 | DMRDPTYRPLKQELQGLDYCIPTR [K21I] | 1.87

Row | Variant | protein stability index
49 | DMRDPTYRPLKQELQGLDYCTPTR [K21T] | 2.63
50 | DMRDPTYRPLKQELQGLDYCSPTR [K21S] | 2.92
51 | DMRDPTYRPLKQELQGLDYCVPTR [K21V] | 3.65
52 | DMRDPTYRPLKQELQGLDYCEPTR [K21E] | 2.76
53 | DMRDPTYRPLKQELQGLDYCGPTR [K21G] | 3.66
54 | DMRDPTYRPLKQELQGLDYCWPTR [K21W] | 1.98
55 | DMRDPTYRPLKQELQGLDYCYPTR [K21Y] | 2.18
56 | DMRDPTYRPLKQELQGLDCCKPTR [Y19C] | 3.91
57 | DMRDPTYRPLKQELQGLDRCKPTR [Y19R] | 4.4
58 | DMRDPTYRPLKQELQGLDHCKPTR [Y19H] | 4.18
59 | DMRDPTYRPLKQELQGLDICKPTR [Y19I] | 3.78
60 | DMRDPTYRPLKQELQGLDACKPTR [Y19A] | 4.53
61 | DMRDPTYRPLKQELQGLDLCKPTR [Y19L] | 4.37
62 | DMRDPTYRPLKQELQGLDKCKPTR [Y19K] | 3.99
63 | DMRDPTYRPLKQELQGLDVCKPTR [Y19V] | 4.5
64 | DMRDPTYIPLKQELQGLDYCKPTR [R8I] | 3.31
65 | DMRDPTYGPLKQELQGLDYCKPTR [R8G] | 3.43
66 | DMRDPTYQPLKQELQGLDYCKPTR [R8Q] | 3.83
67 | DMRDPTYVPLKQELQGLDYCKPTR [R8V] | 3.27
68 | DMRDPTYCPLKQELQGLDYCKPTR [R8C] | 2.79
69 | DMRDPTYAPLKQELQGLDYCKPTR [R8A] | 3.8
70 | DMRDPTYFPLKQELQGLDYCKPTR [R8F] | 2.6
71 | DMRDPTYYPLKQELQGLDYCKPTR [R8Y] | 3.13
72 | DMRDPTYNPLKQELQGLDYCKPTR [R8N] | 3.46

Row | Variant | protein stability index
73 | DMRDPTYRPLKQELQGLDYCKDTR [P22D] | 4.68
74 | DMRDPTYRPLKQELQGLDYCKFTR [P22F] | 2.85
75 | DMRDPTYRPLKQELQGLDYCKATR [P22A] | 3.44
76 | DMRDPTYRPLKQELQGLDYCKKTR [P22K] | 4.35
77 | DMRDPTYRPLKQELQGLDYCKVTR [P22V] | 2.9
78 | DMRDPTYRPLKQELQGLDYCKCTR [P22C] | 3.71
79 | DMRDPTYRPLKQELQGLDYCKITR [P22I] | 2.29
80 | DMRDPTYRPLKQELQGLDYCKTTR [P22T] | 3.07
81 | DMRDPTYRPLKQELQGLDYCKNTR [P22N] | 3.92
82 | DMRDPTYRPLKQELQGLDYCKYTR [P22Y] | 3.13
83 | DMRDPTYRPLKQELQILDYCKPTR [G16I] | 2.17
84 | DMRDPTYRPLKQELQRLDYCKPTR [G16R] | 3.78
85 | DMRDPTYRPLKQELQMLDYCKPTR [G16M] | 3.35
86 | DMRDPTYRPLKQELQCLDYCKPTR [G16C] | 3.17
87 | DMRDPTYRPLKQELQWLDYCKPTR [G16W] | 3.12
88 | DMRDPTYRPLKQELQFLDYCKPTR [G16F] | 2.24
89 | DMRDPTYRPLKQELQGLDYHKPTR [C20H] | 2.93
90 | DMRDPTYRPLKQELQGLDYDKPTR [C20D] | 4.05
91 | DMRDPTYRPLKQELQGLDYTKPTR [C20T] | 3.71
92 | DMRDPTYRPLKQELQGLDYKKPTR [C20K] | 4.6
93 | DMRDPTYRPLKQELQGLDYIKPTR [C20I] | 2.77
94 | DMRDPTYRPLKQELQGLDYQKPTR [C20Q] | 2.8
